Assay [1] deals with T1, GST-Id3 (Homo sapiens, UniProt Q02535).
T1 construct: made in house; host or cells: E. coli BL21 Star (Invitrogen)
T1 sequence (Q02535 1-119): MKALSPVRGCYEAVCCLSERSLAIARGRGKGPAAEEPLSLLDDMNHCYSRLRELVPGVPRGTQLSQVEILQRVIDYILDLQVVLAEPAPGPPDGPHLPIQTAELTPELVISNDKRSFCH
Kind of assay: GST pull-down assay with GST-Id3. Type of assay: binding. As to conditions: in vitro-translated 35S-labeled ENH (FIG. 2B Right). As to the method: (§1) GST Pull-Down Assay, Western Blot, and Coimmunoprecipitation: GST fusion proteins were purified from BL21 Star (Invitrogen). GST pull-down assay was performed as described in lavarone, A. et al., (1994), Genes Dev., 8:1270-1284. For Wetern blot analysis, cellular pellets were lysed in ice-cold RIPA buffer (50 mM Tris, pH 7.5/150 mM NaCl/1% Nonidet P-40/0.5% sodium deoxycholate/0.1% SDS) containing Complete Mini protease inhibitor pellet (Roche) and 1 mM PMSF. Lysates were electrophoresed on SDS/PAGE gels and transferred to nitrocellulose membrane (Amersham Pharmacia Biotech). Membranes were stained with antibodies against ENH, Id2 (Santa Cruz Biotechnology), and α-tubulin (Sigma), and blots were developed by using ECLWestem Blotting Detection System (Amersham Pharmacia Biotech). The anti-ENH antibody is a rabbit polyclonal that was produced in collaboration with Zymed against a peptide that is fully conserved in the mouse sequence (KQQNGPPRKHI (SEQ ID NO:1)). Coimmunoprecipitation of Id2 and ENH from cells transfected with pcDNA.3-Id2 and p3XFlag-ENH was performed as described (lavarone, A. et al., (2004), Nature, 432:1040-1045).
(§2) Given the high homology among the HLH domains of the three Id proteins, it was asked whether Id1 and Id3 could also bind ENH in this assay. Indeed, both GST-Id1 and GST-Id3 bound to full-length ENH (FIG. 2B Right).

Assay [2] relates to endogenous Id2 in SK-N-SH cells. Kind of assay: Subcellular localization of endogenous Id2 after ectopic Flag-ENH (immunofluorescence). It counts as cell-based, human. The conditions noted are these: SK-N-SH transiently transfected with Flag-ENH (FIG. 4B). As to the method:
Quantitative Analysis of Subcellular Localization of Id2 and siRNA Experiments: SK-N-SH-Flag-Id2 cells untreated or treated with RA for 48 h were fixed in 4% paraformaldehyde. Flag-Id2 and endogenous ENH were immunostained by using Flag-M2 (Sigma) and ENH antibodies, respectively. SK-N-SH cells were transfected with vector or p3XFlag-ENH and immunostained by using Flag-M2 and Id2 (Zymed) antibodies. For silencing of ENH, ENH siRNA (siGenome Smartpool reagent M-006930-00) and control, nontargeting (siGenome Smartpool reagent D-001206-13) siRNA mixtures were purchased from Dharmacon. SK-N-SH cells stably expressing Flag-Id2 were treated with vehicle control or RA for 48 h and transfected with 60 nM siRNAs by using Lipofectamine 2000 (Invitrogen). Thirty-six hours after transfection cells were fixed in 4% paraformaldehyde and immunostained by using Flag-M2 antibodies. Parallel cultures were analyzed by Western blot. Secondary antibodies were FITC- or Cy3-conjugated anti-rabbit and Cy3-conjugated anti-mouse (Jackson ImmunoResearch). Nuclei were counterstained with DAPI. Slides were mounted in 90% glycerol in PBS and analyzed on an Olympus epifluorescence microscope. The percentage of cells displaying Id2 staining in the nucleus was scored by counting at least 500 cells from triplicate samples. […]

Assay [3] relates to Id2 inhibition of E47-mediated transcription. Kind of assay: E-box-luciferase reporter assay. It counts as cell-based, human. As to conditions: E-box-luc with E47, Id2 and increasing amounts of ENH (0.375, 0.5, 0.625 μg); FIG. 6A. How it is done:
Luciferase Assay: The luciferase reporter construct 5xE-box-luciferase (Lasorella, A. et al., (1996) Mol. Cell. Biol., 16:2570-2578) was cotransfected with pcDNA.3-E47 and pcDNA.3 vector or pcDNA.3-Id2 and pcDNA.3-ENH into SK-N-SH cells. pCMV-β-gal was cotransfected for normalization. Twenty-four hours later luciferase and β-galactosidase activities were measured as described (Lasorella, A. et al., (2000) Nature, 407:592-598).
To test the hypothesis that ENH restrains the inhibitory effects of Id2 on bHLH-mediated transcription by acting as a cytoplasmic retention factor for Id2, luciferase reporter assays were performed with five multimerized E-boxes driving expression of luciferase (E-box-luc). The E-box-luc plasmid was transfected in the presence of mammalian expression vectors for the ubiquitously expressed bHLH protein E47, Id2, and increasing amounts of ENH. Id2 inhibition of E47-mediated transcription was relieved by coexpression of ENH in a dose-dependent manner (FIG. 6A).
(A reporter such as luciferase makes a cellular process visible.)

Assay [4] addresses T2, GST-Id1 (Homo sapiens, UniProt P41134).
T2 construct: made in house; host or cells: E. coli BL21 Star (Invitrogen)
T2 sequence (P41134 1-155): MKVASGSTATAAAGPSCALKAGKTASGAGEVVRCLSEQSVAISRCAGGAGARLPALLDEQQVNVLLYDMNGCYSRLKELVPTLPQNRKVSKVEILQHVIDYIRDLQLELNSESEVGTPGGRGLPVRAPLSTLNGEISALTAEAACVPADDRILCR
Kind of assay: GST pull-down assay with GST-Id1. Type of assay: binding. As to conditions: in vitro-translated 35S-labeled ENH (FIG. 2B Right). As to the method:
as §1, §2

Assay [5] deals with SK-N-SH neuroblastoma cell line. Kind of assay: Colony-forming assay. Type of assay: cell-based, human. The conditions noted are these: transfected with pcDNA3-ENH, G418 selection 14 days. The source says: (§3) Cell Culture, Colony-Forming Assay, and Transfection: Neuroblastoma cell lines SK-N-SH, IMR-32, and LAN-1, the glioma cell lines SF188, and COS-1 cells were maintained in 10% FBS (Sigma) in DMEM (Cambrex). For colony-forming assay cells were transfected with pcDNA3-ENH or vector control. Cells were selected in G418 for 14 days, and colonies were scored in triplicate cultures. Cells were transfected by using Lipofectamine 2000 according to the manufacturer's instructions.
(§4) A well known function of Id2 is the ability to enhance cell proliferation by promoting the transition from G1 to S phase of the cell cycle. Therefore, it was asked whether ENH inhibited cell proliferation and opposed Id2-mediated entry into S phase. […] Next SK-N-SH was transfected with ENH and Id2 in the presence of a GFP expression plasmid and measured the rate of DNA synthesis by incorporation of BrdU of the successfully transfected, GFP-positive cells.

The subject of assay [6] is SF188 glioma cell line. Kind of assay: Colony-forming assay. Type of assay: cell-based, human. The conditions noted are these: transfected with pcDNA3-ENH, G418 selection 14 days.
Excerpt: as §3, §4

In assay [7] the test system is IMR-32 neuroblastoma cell line. Kind of assay: Colony-forming assay. It counts as cell-based, human. As to conditions: transfected with pcDNA3-ENH, G418 selection 14 days.
Excerpt: as §3, §4

B1: ENH: actin cytoskeleton-associated PDZ-LIM protein ENH (Enigma Homologue), full-length, SEQ ID NO:4; also used Flag-tagged (protein, listed as Homo sapiens)
chain: MSNYSVSLVGPAPWGFRLQGGKDFNMPLTISSLKDGGKAAQANVRIGDVVLSIDGINAQGMTHLEAQNKIKGCTGSLNMTLQRASAAPKPEPVPVQKGEPKEVVKPVPITSPAVSKVTSTNNMAYNKAPRPFGSVSSPKVTSIPSPSSAFTPAHATTSSHASPSPVAAVTPPLFAASGLHANANLSADQSPSALSAGKTAVNVPRQPTVTSVCSETSQELAEGQRRGSQGDSKQQNGPPRKHIVERYTEFYHVPTHSDASKKRLIEDTEDWRPRTGTTQSRSFRILAQITGTEHLKESEADNTKKANNSQEPSPQLASSVASTRSMPESLDSPTSGRPGVTSLTTAAAFKPVGSTGVIKSPSWQRPNQGVPSTGRISNSATYSGSVAPANSALGQTQPSDQDTLVQRAEHIPAGKRTPMCAHCNQVIRGPFLVALGKSWHPEEFNCAHCKNTMAYIGFVEEKGALYCELCYEKFFAPECGRCQRKILGEVINALKQTWHVSCFVCVACGKPIRNNVFHLEDGEPYCETDYYALFGTICHGCEFPIEAGDMFLEALGYTWHDTCFVCSVCCESLEGQTFFSKKDKPLCKKHAHSVNF
In the case of B1, the “binding of GST-Id3 to ENH” value in assay [1] was “bound”. Besides, in assay [2], the “subcellular localization of endogenous Id2” value is “translocation of Id2 to the cytoplasm”. In assay [3], the “Id2 inhibition of E47-mediated transcription (luciferase activity)” value is given as “relieved”. Moreover, the “binding of GST-Id1 to ENH” value in assay [4] was “bound”. The colony formation entry in assay [5], in assay [6] and in assay [7] was “markedly inhibited” in each case.

The values are drawn from US20070041944A1, “Treating tumors by ENH dislocation of ID proteins” (THE TRUSTEES OF COLUMBIA UNIVERSITY IN THE CITY OF NEW YORK, priority 2005, published 2007).
